Target: T1, 鼠疫耶尔森菌抗原F1 (重组F1蛋白) (Yersinia pestis, UniProt P26948 22-170)
T1 construct: also called F1抗原; 鼠疫抗原F1
Assay: immunological detection (免疫学检测)

T1 sequence (P26948 22-170 limits assumed): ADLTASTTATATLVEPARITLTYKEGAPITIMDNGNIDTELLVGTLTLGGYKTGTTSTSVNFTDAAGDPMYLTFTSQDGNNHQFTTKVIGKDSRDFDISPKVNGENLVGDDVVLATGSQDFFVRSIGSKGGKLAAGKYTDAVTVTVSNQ

B1: 人鼠嵌合单克隆抗体 hm YF202 (antibody, V domains shown)
VH: ESGPDLVKPSQSLSLTCTVTGYSITSGYSWHWIRQFPGNKLEWMGYIHYSGSTNYNPSLKSRISITRDTSKNQFFLQLNSVTTEDTATYYCARNYAMDYWGQGTLVTVS
VL: DIVMTQSPKFMSTSVGDRVSVTCKASQNVGTNVAWYQQKPGQSPKALIYSASYRYSGVPDRFTGSGSGTDFTLTISNVQSEDLAEYFCQQYNSYPYTFGGGTKLEIKR
notes: also called 抗F1的人鼠嵌合单克隆抗体
binding result: binds
